# B1: endogenous TRAP1 (natural protein, human (endogenous in HEK293T), UniProt Q12931 60-704, looked up)
# chain: STQTAEDKEEPLHSIISSTESVQGSTSKHEFQAETKKLLDIVARSLYSEKEVFIRELISNASDALEKLRHKLVSDGQALPEMEIHLQTNAEKGTITIQDTGIGMTQEELVSNLGTIARSGSKAFLDALQNQAEASSKIIGQFGVGFYSAFMVADRVEVYSRSAAPGSLGYQWLSDGSGVFEIAEASGVRTGTKIIIHLKSDCKEFSSEARVRDVVTKYSNFVSFPLYLNGRRMNTLQAIWMMDPKDVREWQHEEFYRYVAQAHDKPRYTLHYKTDAPLNIRSIFYVPDMKPSMFDVSRELGSSVALYSRKVLIQTKATDILPKWLRFIRGVVDSEDIPLNLSRELLQESALIRKLRDVLQQRLIKFFIDQSKKDAEKYAKFFEDYGLFMREGIVTATEQEVKEDIAKLLRYESSALPSGQLTSLSEYASRMRAGTRNIYYLCAPNRHLAEHSPYYEAMKKKDTEVLFCFEQFDELTLLHLREFDKKKLISVETDIVVDHYKEEKFEDRSPAAECLSEKETEELMAWMRNVLGSRVTNVKVTLRLDTHPAMVTVLEMGAARHFLRMQQLAKTQEERAQLLQPTLEINPRHALIKKLNQLRASEPGLAQLLVDQIYENAMIAAGLVDDPRAMVGRLNELLVKALERH
# notes: also called endogenous mitochondrial TRAP1; wild-type (WT) endogenous TRAP1; source: endogenous, mitochondrial extracts of HEK293T cells (also MCF-7, MDA-MB-134, PC3 and HCT116 cells)
# B2: recombinant human TRAP1 (natural protein, UniProt Q12931 60-704, looked up)
# chain: B1 chain
# notes: TRAP1, human, recombinant; probably without the MTS (surmise); Same material used for blue native PAGE and cryo-EM; also called purified recombinant TRAP1
# B3: TRAP1-GST fusion protein (natural protein, human, UniProt Q12931 60-704, looked up)
# chain: B1 chain
# notes: TRAP1, human; the MTS is cleaved off upon import; Called one of the 'full-length TRAP1 proteins with different tags'; source: HEK293T, transfected, pulled down from mitochondrial lysate on glutathione beads and eluted with glutathione; not shown: GST, C-terminal, kept
# Key:
# [1] = target: the molecule itself; experiment: native gel or EMSA; clear native PAGE (6% or 8% Tris-glycine, 4 °C) of 30 μg mitochondrial extract, immunoblot with anti-TRAP1; cells also treated with hypoxia, oligomycin, rotenone, antimycin A or LDHi, or grown on different carbon sources
# [2] = target: the molecule itself; experiment: native gel or EMSA; blue native PAGE (3-12%) of purified recombinant TRAP1 (20 and 5 ng), immunoblot with anti-TRAP1
# [3] = target: the molecule itself; experiment: affinity purification with mass spectrometry + native gel or EMSA; glutathione bead pull-down of TRAP1-GST from 1 mg mitochondrial lysate of transfected HEK293T cells, elution with 80 mM glutathione, 6% clear native gel, the stained complex band excised and analysed by LC/MS/MS; cutoff 11 unique peptides, GST alone as control
protein,measurement,setting,value
B1,stoichiometry N,[1],4
B2,stoichiometry N,[2],4
B3,stoichiometry N,[3],4
